Laboratory results taken from patent US20190142860A1, “NUCLEIC ACID BASED TIA-1 INHIBITORS” (Aquinnah Pharmaceuticals, Inc., priority 2015, published 2019).

Columns and labels:
[1] = biological target: Nucleolysin TIA-1 (endogenous mouse TIA1) (mouse) (UniProt P52912); experiment: TIA1 IP-MS, WT1 cortex
[2] = biological target: Nucleolysin TIA-1 (endogenous mouse TIA1) (mouse) (UniProt P52912); experiment: TIA1 IP-MS, tau KO 1 cortex
[3] = biological target: Nucleolysin TIA-1 (endogenous mouse TIA1) (mouse) (UniProt P52912); experiment: TIA1 IP-MS, tau KO 2 cortex
[4] = biological target: Nucleolysin TIA-1 (endogenous mouse TIA1) (mouse) (UniProt P52912); experiment: TIA1 IP-MS, WT2 cortex
[5] = biological target: Nucleolysin TIA-1 (endogenous mouse TIA1) (mouse) (UniProt P52912); experiment: TIA1 IP-MS, tau KO 3 cortex
[6] = biological target: Nucleolysin TIA-1 (endogenous mouse TIA1) (mouse) (UniProt P52912); experiment: TIA1 IP-MS, WT3 cortex

UniProt P52912, sequence (P52912 whole entry): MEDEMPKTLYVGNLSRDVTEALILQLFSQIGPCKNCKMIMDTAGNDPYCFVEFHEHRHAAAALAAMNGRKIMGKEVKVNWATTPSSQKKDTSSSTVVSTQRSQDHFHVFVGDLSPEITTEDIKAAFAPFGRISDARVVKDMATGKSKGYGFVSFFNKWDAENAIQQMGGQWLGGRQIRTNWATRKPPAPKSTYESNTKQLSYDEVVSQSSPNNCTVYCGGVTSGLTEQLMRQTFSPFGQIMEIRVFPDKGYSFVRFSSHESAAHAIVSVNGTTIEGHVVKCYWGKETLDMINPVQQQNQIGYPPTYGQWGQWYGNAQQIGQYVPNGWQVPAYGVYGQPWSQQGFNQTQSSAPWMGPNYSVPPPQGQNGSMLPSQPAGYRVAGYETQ

total ion current (normalized to TIA1 = 1000) [1]	total ion current (normalized to TIA1 = 1000) [2]	total ion current (normalized to TIA1 = 1000) [3]	total ion current (normalized to TIA1 = 1000) [4]	total ion current (normalized to TIA1 = 1000) [5]	total ion current (normalized to TIA1 = 1000) [6]	Substance
0	130	64.5	141	0	0	Vesicular glutamate transporter 1 (from UniProt Q3TXX4 1-560)
0	10.6	0	408	0	0	Leucine-rich repeat-containing protein 59 (from UniProt Q922Q8 1-307)
0	0	51	60.4	0	95.5	Pyruvate dehydrogenase E1 component subunit beta, mitochondrial (from UniProt Q9D051 31-359)
0	0	0	69.1	0	0	Hemoglobin subunit alpha (from UniProt P01942 2-142)
0	0	90.2	107	0	190	Solute carrier family 2, facilitated glucose transporter member 3 (from UniProt P32037 1-493)
0	0	67.8	108	0	83.7	Dual specificity mitogen-activated protein kinase kinase 1 (from UniProt P31938 1-393)
0	0	130	353	0	0	Dihydrolipoyllysine-residue acetyltransferase component of pyruvate dehydrogenase complex, mitochondrial (from UniProt Q8BMF4 86-642)
0	0	0	92.1	0	0	CaM kinase-like vesicle-associated protein (from UniProt Q3UHL1 1-512)
0	0	121	150	0	76.1	Eukaryotic initiation factor 4A-I (from UniProt P60843 2-406)
0	0	155	186	0	138	Isocitrate dehydrogenase [NAD] subunit alpha, mitochondrial (from UniProt Q9D6R2 28-366)
0	0	6.9	75.3	0	18.8	Cluster of Phosphatidylinositol 5-phosphate 4-kinase type-2 alpha (from UniProt O70172 2-405)
0	0	59.6	37.8	0	137	Isoform 2 of Homer protein homolog 1 (from UniProt Q9Z2Y3 1-370)
0	0	43	46.1	0	0	Isoform 2 of Sideroflexin-3 (from UniProt Q91V61 1-288)
0	0	30.7	15.1	0	25.3	Sodium/potassium-transporting ATPase subunit beta-2 (from UniProt P14231 1-290)
0	0	0	0	0	49.8	Puromycin-sensitive aminopeptidase (from UniProt Q11011 1-920)
0	0	0	375	0	0	ATP synthase subunit O, mitochondrial (from UniProt Q9DB20 24-213)
6.22	0	0	0	0	0	U1 small nuclear ribonucleoprotein 70 kDa (from UniProt Q62376 2-448)
0	0	107	162	0	0	Splicing factor U2AF 65 kDa subunit (from UniProt P26369 2-475)
0	0	0	98.3	239	0	Isoform 2 of Paraspeckle component 1 (from UniProt Q8R326 1-466)
0	0	0	36.6	0	0	Phosphatidylinositol 5-phosphate 4-kinase type-2 gamma (from UniProt Q91XU3 2-421)
